Laboratory results reported in paper PMC5748844 (The Journal of Experimental Medicine, 2018).
Where two headings read alike, the source gives them in different places.

Tests used:
[1] = target: soluble RAGE (receptor for advanced glycation end products) (UniProt Q15109); test: SPR
[2] = target: soluble RAGE (receptor for advanced glycation end products) (UniProt Q15109); test: SPR; remark: listed apart in the source

| Kd [1] | Kd [2] | Molecule |
| --- | --- | --- |
| 3.5 µM | – | nonoxidizable HMGB1 mutant 3S (from UniProt P63159 1-215) (natural protein) |
| – | 3.5 µM | fully reduced HMGB1 (High Mobility Group Box 1) (natural protein, all cysteines reduced) MGKGDPKKPRGKMSSYAFFVQTCREEHKKKHPDASVNFSEFSKKCSERWKTMSAKEKGKFEDMAKADKARYEREMKTYIPPKGETKKKFKDPNAPKRPPSAFFLFCSEYRPKIKGEHPGLSIGDVAKKLGEMWNNTAADDKQPYEKKAAKLKEKYEKDIAAYRAKGKPDAAKKGVVKAEKSKKKKEEEDDEEDEEDEEEEEEEEDEDEEEDDDDE |
